Test results taken from US20200113969.

How the values were obtained:
[1] = test system: deflamin isolated from Lupinus albus seeds
[2] = test system: peak 1 of the RP-HPLC fractionation of L. albus deflamin
[3] = molecular target: peak 2 of the RP-HPLC fractionation of L. albus deflamin (UniProt F5B8W8)
[4] = molecular target: peak 3 of the RP-HPLC fractionation of L. albus deflamin (UniProt F5B8W8)
[5] = test system: peak 4 of the RP-HPLC fractionation of L. albus deflamin

Sequence of MMP-9 (commercial enzyme, Sigma) (chain, as listed by the source): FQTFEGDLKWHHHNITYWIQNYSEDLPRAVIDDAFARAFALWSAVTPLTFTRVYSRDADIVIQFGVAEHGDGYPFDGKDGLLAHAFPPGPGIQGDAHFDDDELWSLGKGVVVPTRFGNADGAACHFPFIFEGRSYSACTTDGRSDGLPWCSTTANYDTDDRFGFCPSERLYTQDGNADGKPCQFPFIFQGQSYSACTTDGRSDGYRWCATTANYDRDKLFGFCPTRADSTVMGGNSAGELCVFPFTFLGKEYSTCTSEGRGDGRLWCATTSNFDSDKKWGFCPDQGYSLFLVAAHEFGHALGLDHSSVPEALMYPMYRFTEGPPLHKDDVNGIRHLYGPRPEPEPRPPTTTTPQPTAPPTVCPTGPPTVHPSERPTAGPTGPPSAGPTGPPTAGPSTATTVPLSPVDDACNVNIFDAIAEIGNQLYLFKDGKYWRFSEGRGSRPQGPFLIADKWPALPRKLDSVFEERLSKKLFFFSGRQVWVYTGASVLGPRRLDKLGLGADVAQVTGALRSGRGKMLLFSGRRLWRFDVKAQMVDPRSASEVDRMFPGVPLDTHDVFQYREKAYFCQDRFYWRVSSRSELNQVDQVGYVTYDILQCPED
Sequence of peak 3 of the RP-HPLC fractionation of L. albus deflamin (F5B8W8 whole entry, looked up): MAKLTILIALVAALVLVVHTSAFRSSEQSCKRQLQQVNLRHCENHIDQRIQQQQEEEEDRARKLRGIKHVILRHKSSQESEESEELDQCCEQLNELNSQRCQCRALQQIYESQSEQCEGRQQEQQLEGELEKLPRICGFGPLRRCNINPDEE
Sequence of peak 2 of the RP-HPLC fractionation of L. albus deflamin (F5B8W8 whole entry, looked up): as above
Sequence of deflamin isolated from Lupinus albus seeds (chain, as listed by the source, chain 1 of 2): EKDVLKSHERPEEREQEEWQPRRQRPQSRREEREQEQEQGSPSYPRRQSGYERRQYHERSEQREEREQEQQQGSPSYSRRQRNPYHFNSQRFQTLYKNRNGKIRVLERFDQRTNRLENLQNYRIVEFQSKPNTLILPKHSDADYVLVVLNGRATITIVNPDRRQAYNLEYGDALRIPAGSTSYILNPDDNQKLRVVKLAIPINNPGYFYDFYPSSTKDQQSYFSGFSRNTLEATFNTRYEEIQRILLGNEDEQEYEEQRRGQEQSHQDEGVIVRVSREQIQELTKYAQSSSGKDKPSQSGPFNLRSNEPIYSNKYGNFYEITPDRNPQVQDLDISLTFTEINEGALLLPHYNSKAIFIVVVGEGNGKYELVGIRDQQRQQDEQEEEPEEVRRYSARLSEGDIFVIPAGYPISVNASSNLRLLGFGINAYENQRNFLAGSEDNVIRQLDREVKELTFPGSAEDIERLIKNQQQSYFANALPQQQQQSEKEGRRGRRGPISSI
Sequence of deflamin isolated from Lupinus albus seeds (chain, as listed by the source, chain 2 of 2): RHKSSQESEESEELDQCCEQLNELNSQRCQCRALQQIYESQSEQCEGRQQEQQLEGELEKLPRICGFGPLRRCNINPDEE

MMP-9 (commercial enzyme, Sigma)
MMP-9 proteolytic activity on DQ-gelatin, deflamin at 50 µg/mL [1]: the highest inhibition (P<0.05) detected for deflamin, which induced a reduction greater than 80% of MMP-9 activity | MMP-9 proteolytic activity, DQ fluorogenic assay, 25 µg/ml [2]: all the selected peaks presented some degree of MMP inhibition | MMP-9 proteolytic activity, DQ fluorogenic assay, 25 µg/ml [3]: all the selected peaks presented some degree of MMP inhibition | MMP-9 proteolytic activity, DQ fluorogenic assay, 25 µg/ml [4]: all the selected peaks presented some degree of MMP inhibition and also inhibited invasion, but peak 3 was the one with the highest observed activities | MMP-9 proteolytic activity, DQ fluorogenic assay, 25 µg/ml [5]: all the selected peaks presented some degree of MMP inhibition
